Holding throughout (assay): cell-based or functional assay
In test [1] the target is FGFR2-IIIb N550K expressed on FDCP-1 cells (human), P21802.
In test [2] the target is FGFR2-IIIb S252W expressed on FDCP-1 cells (human), P21802.
Test [3] has as its target wild type FGFR2-IIIb expressed on FDCP-1 cells (human), P21802.

B1: antibody 4B9 (antibody)
heavy: EVQLQQSGTVLARPGASVKMSCKTSGYTFTSYWMHWVKQRPGQGLEWIGAIYPGNSDTDYSQKFKGKATLTAVTSATTAYMELSSLTNEDSAVYYCSKFDYWGQGTTLTVSSAKTTPPSVYPLAPGSAAQTNSMVTLGCLVKGYFPEPVTVTWNSGSLSSGVHTFPAVLQSDLYTLSSSVTVPSSTWPSQTVTCNVAHPASSTKVDKKIVPRDCGCKPCICTVPEVSSVFIFPPKPKDVLTITLTPKVTCVVVDISKDDPEVQFSWFVDDVEVHTAQTQPREEQFNSTFRSVSELPIMHQDWLNGKEFKCRVNSAAFPAPIEKTISKTKGRPKAPQVYTIPPPKEQMAKDKVSLTCMITDFFPEDITVEWQWNGQPAENYKNTQPIMDTDGSYFVYSKLNVQKSNWEAGNTFTCSVLHEGLHNHHTEKSLSHSPGK
light: QIVLTQSPALMSASPGEKVTMTCSASSSVNYMYWYQQKPRSSPKPWIYLTSNLASGVPARFSGRGSGTSYSLTISSMEAEDAATYYCQQWSSNPYTFGGGTKLEIKRADAAPTVSIFPPSSEQLTSGGASVVCFLNNFYPRDINVKWKIDGSERQNGVLNSWTDQDSKDSTYSMSSTLTLTKDEYERHNSYTCEATHKTSTSPIVKSFNRNEC
For B1, the IC50 of inhibition of cell proliferation (MTT assay) turned out to be 8.1 nM in test [1], 3 nM in test [2] and 0.3 nM in test [3].

The values above are taken from patent US20130288305A1.
